Results as given in patent US20080160008.

Legend:
Aβ1-38 = Aβ1-38 (UniProt P05067)
Aβ1-40 = Aβ1-40 (UniProt P05067)
[1] = biological target: Aβ1-42 (fresh, nonaggregated synthetic peptide, rPeptide) (UniProt P05067)
[2] = biological target: high-molecular-weight (MW) Aβ assemblies (UniProt P05067)
fibrillar Aβ1-42 = fibrillar Aβ1-42 (UniProt P05067)
protofibrillar Aβ1-42 = protofibrillar Aβ1-42 (UniProt P05067)
Sequence of protofibrillar Aβ1-42 (P05067 whole entry, looked up, tested part not stated): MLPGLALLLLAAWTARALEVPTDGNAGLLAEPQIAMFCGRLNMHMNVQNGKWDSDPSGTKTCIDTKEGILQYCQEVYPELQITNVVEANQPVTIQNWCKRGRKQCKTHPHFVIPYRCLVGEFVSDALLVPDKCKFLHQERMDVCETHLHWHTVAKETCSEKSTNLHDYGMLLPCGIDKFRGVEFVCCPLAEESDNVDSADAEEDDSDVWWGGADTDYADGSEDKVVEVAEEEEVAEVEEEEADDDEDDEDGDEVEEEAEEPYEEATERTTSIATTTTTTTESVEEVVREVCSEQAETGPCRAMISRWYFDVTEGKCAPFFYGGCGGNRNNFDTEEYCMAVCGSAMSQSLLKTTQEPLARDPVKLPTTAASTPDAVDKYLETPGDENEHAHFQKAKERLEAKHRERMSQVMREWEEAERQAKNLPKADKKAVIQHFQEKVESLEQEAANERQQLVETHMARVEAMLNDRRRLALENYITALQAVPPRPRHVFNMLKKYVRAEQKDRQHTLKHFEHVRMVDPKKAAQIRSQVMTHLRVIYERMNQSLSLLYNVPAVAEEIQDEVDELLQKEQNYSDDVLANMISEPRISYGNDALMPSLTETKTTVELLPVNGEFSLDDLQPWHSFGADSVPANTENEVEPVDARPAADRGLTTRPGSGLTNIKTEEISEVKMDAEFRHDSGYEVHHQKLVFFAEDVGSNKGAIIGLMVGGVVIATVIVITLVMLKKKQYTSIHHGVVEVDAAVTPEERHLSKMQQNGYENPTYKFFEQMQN

Sequence of Aβ1-42 (fresh, nonaggregated synthetic peptide, rPeptide) (P05067 whole entry, looked up, tested part not stated): as above
Sequence of fibrillar Aβ1-42 (P05067 whole entry, looked up, tested part not stated): as above
Sequence of high-molecular-weight (MW) Aβ assemblies (P05067 whole entry, looked up): as the sequence (P05067 whole entry, looked up, tested part not stated) above
Sequence of Aβ1-40 (P05067 whole entry, looked up, tested part not stated): as above
Sequence of Aβ1-38 (P05067 whole entry, looked up, tested part not stated): as above

## purified CatB from human liver (Sigma)
Aβ1-38
  proteolytic products analyzed with SELDI-TOF mass spectrometry: even when Aβ1-40 was almost completely converted to Aβ1-38, no Aβ1-36 was generated from Aβ1-38
Aβ1-40
  proteolytic products analyzed with SELDI-TOF mass spectrometry: Levels of Aβ1-40 were increased initially at lower doses (100-400 ng/ml), but decreased at higher doses (0.4-2.5 µg/ml)
[1]
  SELDI-TOF mass spectrometry of cleavage at pH 7.0: At neutral pH (˜7.0), the ability of CatB to cleave Aβ, especially nonaggregated (fresh) Aβ, was markedly reduced
  proteolytic products analyzed with SELDI-TOF mass spectrometry: Incubating Aβ1-42 with CatB resulted in the dose-dependent generation of Aβ1-40, Aβ1-38, and Aβ1-33 through proteolytic cleavage at Val40-Ile41, Gly38-Gly39, and Gly33-Leu34
  western blot analysis of acid-urea gels: The dose-dependent cleavage of Aβ1-42 was confirmed by western blot analysis of acid-urea gels
  western blot of Tricine SDS-PAGE gels: Levels of low-MW Aβ1-42 oligomers and monomers, detected with an antibody specific for Aβ1-42, were also reduced
[2]
  western blot of Tricine SDS-PAGE gels: Incubation of CatB induced a marked decrease in the amounts of high-molecular-weight (MW) Aβ assemblies
Fibrillar Aβ1-42
  SELDI-TOF mass spectrometry of cleavage at pH 7.0: protofibrillar/nonfibrillar Aβ oligomers and fibrillar Aβ1-42 preparations were cleaved by CatB even at neutral pH, resulting in the same truncated Aβ species observed at pH 6.0
  amount of fibrillar structures by electron microscopy: incubation of fibrillar Aβ1-42 with CatB did reduce the amount of fibrillar structures
Protofibrillar Aβ1-42
  SELDI-TOF mass spectrometry of cleavage at pH 6.0: at pH 6.0, were cleaved by CatB as efficiently as nonaggregated preparations, resulting in the same C-terminally-truncated peptides, Aβ1-40, Aβ1-38, and Aβ1-33
  SELDI-TOF mass spectrometry of cleavage at pH 7.0: protofibrillar/nonfibrillar Aβ oligomers and fibrillar Aβ1-42 preparations were cleaved by CatB even at neutral pH, resulting in the same truncated Aβ species observed at pH 6.0
